Here are results for 1 substance from PMC6508782.

The target in the assay is Hcf106 G6CV14C (Pisum sativum). Briefly: cross-linking; disulfide cross-linking with 1 mM CuP for 5 min of [3H]Hcf106 Cys variants integrated into NEM-pretreated thylakoid; non-reducing SDS-PAGE, fluorography.

With Hcf106 G6CV14C (natural protein), the stoichiometry N was < 8.
